Assay results from patent US20180291103A1.

Legend:
[1] = target: PDL1-Fc fusion protein (human PDL1-Fc) (human); assay: SPR, BIAcore X100; PDL1-Fc on CM5 chip, antibody as analyte, 25 C
[2] = target: Fc protein; assay: ELISA; Fc protein coated, control group well (row 'blank'), anti-His detection, 405 nm
[3] = target: PDL1-Fc fusion protein (human PDL1-Fc) (human); assay: ELISA; OD on PDL1-Fc divided by OD on Fc protein, control group well (row 'blank')
[4] = target: PDL1-Fc fusion protein (human PDL1-Fc) (human); assay: ELISA; PDL1-Fc coated, control group well (row 'blank'), anti-His detection, 405 nm
[5] = target: Mouse PDL1-Fc protein (mouse); assay: ELISA; mouse PDL1-Fc coated at 0.5 µg/well, control group well (row 'blank'), anti-His detection, 405 nm
Mouse PDL1-Fc protein (mouse), sequence (chain, as listed by the source limits assumed): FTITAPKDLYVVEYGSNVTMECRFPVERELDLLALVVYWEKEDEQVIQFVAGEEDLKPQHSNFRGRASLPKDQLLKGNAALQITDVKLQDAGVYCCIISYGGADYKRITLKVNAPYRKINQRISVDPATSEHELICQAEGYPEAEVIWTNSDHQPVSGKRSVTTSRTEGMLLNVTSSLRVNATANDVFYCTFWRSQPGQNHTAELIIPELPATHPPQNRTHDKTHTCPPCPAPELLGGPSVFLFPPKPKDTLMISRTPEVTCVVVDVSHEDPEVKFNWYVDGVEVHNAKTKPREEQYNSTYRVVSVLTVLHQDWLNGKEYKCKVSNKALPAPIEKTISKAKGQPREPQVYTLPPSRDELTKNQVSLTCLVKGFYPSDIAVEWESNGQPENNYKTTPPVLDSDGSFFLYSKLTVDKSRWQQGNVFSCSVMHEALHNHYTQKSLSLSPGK

PDL1-Fc fusion protein (human PDL1-Fc) (human), sequence (chain, as listed by the source limits assumed): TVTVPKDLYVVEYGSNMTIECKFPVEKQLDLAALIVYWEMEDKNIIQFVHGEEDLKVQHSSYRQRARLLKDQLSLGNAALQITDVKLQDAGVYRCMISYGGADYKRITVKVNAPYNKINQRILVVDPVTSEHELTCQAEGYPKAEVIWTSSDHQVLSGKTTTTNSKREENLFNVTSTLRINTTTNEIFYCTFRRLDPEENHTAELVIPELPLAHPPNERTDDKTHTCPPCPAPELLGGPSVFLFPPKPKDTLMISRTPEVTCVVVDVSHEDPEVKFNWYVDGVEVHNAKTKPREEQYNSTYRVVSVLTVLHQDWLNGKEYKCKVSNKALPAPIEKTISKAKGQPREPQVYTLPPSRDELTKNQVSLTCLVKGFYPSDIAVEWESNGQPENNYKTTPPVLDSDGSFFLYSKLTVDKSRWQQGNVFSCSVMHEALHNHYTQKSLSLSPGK

Kd [1]	OD (against Fc) [2]	OD (PDL1/Fc) [3]	OD (against PDL1) [4]	OD (against mouse PDL1) [5]	Substance
0.135 nM	–	–	–	–	243.55 (anti-PDL1 antibody of Roche)
–	0.072 OD	0.75	0.054 OD	0.096 OD	control single domain antibody against other unrelated target (control group of the ELISA; table row 'blank') (VHH)
